This is an account of results in article PMC2881104.

This assay addresses regulatory domain of OxyR (NMB0173) from Neisseria meningitidis, reduced form (N. meningitidis). Description: crystal structure; selenomethionine protein, His tag removed, 9 mg/ml in 20 mM Tris pH 7.5, 200 mM NaCl, 2 mM TCEP; reservoir 20% w/v PEG 3350, 0.2 M calcium acetate; 2.4 Å; dimer in the asymmetric unit.

On to “regulatory domain of OxyR (NMB0173) from Neisseria meningitidis, reduced form (domain or fragment)”, for which the stoichiometry N worked out at 2.
